Results on two molecules are retold here after paper PMC10838314, “Exploring TRF2-Dependent DNA Distortion Through Single-DNA Manipulation Studies”.

Holding throughout (conditions): protein: recombinant, tags: N-terminal His6 removed by TEV, chain copies: 2, label: 5' biotin and 3' thiol via ligated handles, 52 bp stem, 8 nt loop
The target in data set [1] is T1, hTRF2 full-length (Homo sapiens, UniProt Q15554 43-542). The data set can be described thus: single-molecule magnetic tweezers hairpin unzipping; Hill n=1.2±1.7; Magnetic tweezers: 150 mM KCl (stretching; full buffer, pH and temperature not in material). EMSA: 25 mM HEPES-Na pH 7.5, 50 mM NaCl, 4 C, 30 min. In general terms: In EMSA bound probe runs differently from free probe, usually more slowly.
T1 sequence (Q15554 43-542): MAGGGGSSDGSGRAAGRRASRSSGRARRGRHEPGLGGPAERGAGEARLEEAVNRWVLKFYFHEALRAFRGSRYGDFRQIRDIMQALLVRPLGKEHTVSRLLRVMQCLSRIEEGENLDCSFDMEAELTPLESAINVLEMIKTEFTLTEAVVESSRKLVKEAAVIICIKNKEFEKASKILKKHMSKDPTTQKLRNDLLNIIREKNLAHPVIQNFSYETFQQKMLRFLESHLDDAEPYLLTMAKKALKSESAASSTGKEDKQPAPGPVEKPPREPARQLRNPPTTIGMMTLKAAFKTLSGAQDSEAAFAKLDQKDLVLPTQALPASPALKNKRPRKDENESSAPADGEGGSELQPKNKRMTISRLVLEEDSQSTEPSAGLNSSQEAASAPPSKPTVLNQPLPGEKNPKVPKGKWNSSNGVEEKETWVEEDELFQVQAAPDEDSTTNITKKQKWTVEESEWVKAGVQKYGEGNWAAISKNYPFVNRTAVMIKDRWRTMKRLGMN

The target of data set [2] is TRF2 45-500 (deltaB-TRF2) (Homo sapiens, UniProt Q15554 87-542, del43-86). The data set can be described thus: single-molecule magnetic tweezers hairpin unzipping; Hill n=1.0±0.2; Magnetic tweezers: 150 mM KCl (stretching; full buffer, pH and temperature not in material). EMSA: 25 mM HEPES-Na pH 7.5, 50 mM NaCl, 4 C, 30 min.
TRF2 45-500 (deltaB-TRF2), sequence (Q15554 87-542, stated change not applied): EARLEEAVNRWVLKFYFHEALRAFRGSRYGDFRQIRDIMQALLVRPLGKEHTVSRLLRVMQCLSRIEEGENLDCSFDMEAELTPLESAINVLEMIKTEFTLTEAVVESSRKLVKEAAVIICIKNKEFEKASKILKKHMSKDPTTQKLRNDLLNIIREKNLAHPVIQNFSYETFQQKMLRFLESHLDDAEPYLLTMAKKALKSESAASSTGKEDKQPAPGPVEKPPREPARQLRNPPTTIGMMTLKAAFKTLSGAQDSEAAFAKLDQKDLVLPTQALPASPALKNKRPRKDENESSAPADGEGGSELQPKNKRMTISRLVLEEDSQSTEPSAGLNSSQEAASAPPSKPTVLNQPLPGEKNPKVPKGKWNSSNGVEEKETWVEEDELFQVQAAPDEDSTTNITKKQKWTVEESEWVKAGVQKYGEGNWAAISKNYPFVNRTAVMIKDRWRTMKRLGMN
For data set [3], the target named is T1, hTRF2 full-length. The data set can be described thus: single-molecule magnetic tweezers hairpin unzipping; Hill n=1.0±0.3; Fb 7 pN; Magnetic tweezers: 150 mM KCl (stretching; full buffer, pH and temperature not in material). EMSA: 25 mM HEPES-Na pH 7.5, 50 mM NaCl, 4 C, 30 min.
The target in another data set is TRFH (TRF2 42-245) (Homo sapiens, UniProt Q15554 84-287). The data set can be described thus: single-molecule magnetic tweezers hairpin unzipping; no unzipping delay up to 5 uM; very dynamic binding not excluded; Magnetic tweezers: 150 mM KCl (stretching; full buffer, pH and temperature not in material). EMSA: 25 mM HEPES-Na pH 7.5, 50 mM NaCl, 4 C, 30 min.
TRFH (TRF2 42-245), sequence (Q15554 84-287): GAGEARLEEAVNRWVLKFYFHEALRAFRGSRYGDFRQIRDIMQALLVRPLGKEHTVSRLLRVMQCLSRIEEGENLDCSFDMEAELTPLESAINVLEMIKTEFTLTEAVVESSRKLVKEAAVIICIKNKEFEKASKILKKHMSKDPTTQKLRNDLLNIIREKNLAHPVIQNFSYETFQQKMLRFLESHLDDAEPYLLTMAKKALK

What is called Kd is the free concentration of one partner at which half of the binding sites on the other are occupied at equilibrium, for simple one-to-one binding.

B1: non-telomeric hairpin (structured_DNA)
DNA: CTTGTGCACAGACTCGTTTGGTTATCGAAGGTAAGGTCTGGCGAACGGTGTATTACCGGTTTGCTACCAGGAAAAAAAACCTGGTAGCAAACCGGTAATACACCGTTCGCCAGACCTTACCTTCGATAACCTTTGCAGCCAGGTCAGTAGCGAC
modifications: 5' phosphate
With B1, the Kd with hTRF2 full-length [1] is 76.8 ± 31.7 nM.

B2: 5-repeat telomeric hairpin (structured_DNA)
DNA: CTTGTGCACAGACTCGTTTGGTTATCGAAGGTTAGGGTTAGGGTTAGGGTTAGGGTTAGGGTGCTACCAGGAAAAAAAACCTGGTAGCACCCTAACCCTAACCCTAACCCTAACCCTAACCTTCGATAACCTTTGCAGCCAGGTCAGTAGCGAC
modifications: 5' phosphate
Regarding B2, the values for the Kd (in data set [2]; with hTRF2 full-length [3]) were 284 ± 70.5 nM and 10.3 ± 2.9 nM, respectively. In the data set with TRFH (TRF2 42-245), the binding result is listed as “no binding”.
